The record followed here is patent publication US20020151484A1 (HYBRIGENICS, published 2002).

Test in all cases: yeast two-hybrid, mating, His3/LacZ reporters
Assay [1] concerns the target T1, Bait polypeptide of SEQ ID No 77, Core (87%), HCV strain H77 nt 302-614 (hepatitis C virus strain H77).
T1 construct: also called Bait Core (87%)
T1 chain: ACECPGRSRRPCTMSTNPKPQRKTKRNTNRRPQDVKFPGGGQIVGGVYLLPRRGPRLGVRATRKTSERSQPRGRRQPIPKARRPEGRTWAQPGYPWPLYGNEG

In assay [2] the target is T2, Bait polypeptide of SEQ ID No 78, Core (100%), HCV strain H77 nt 342-683 (hepatitis C virus strain H77, UniProt P27958 1-113).
T2 construct: also called Bait Core (100%)
T2 sequence: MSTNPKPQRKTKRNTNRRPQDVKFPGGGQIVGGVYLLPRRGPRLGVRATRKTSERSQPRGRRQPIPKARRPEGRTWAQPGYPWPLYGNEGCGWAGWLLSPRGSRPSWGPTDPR

Assay [3] concerns the target T3, Bait polypeptide of SEQ ID No 102, NS5A (100%), HCV strain H77 nt 6317-6576 (hepatitis C virus strain H77, UniProt P26664 1993-2077).
T3 construct: also called Bait NS5A (100%)
T3 chain: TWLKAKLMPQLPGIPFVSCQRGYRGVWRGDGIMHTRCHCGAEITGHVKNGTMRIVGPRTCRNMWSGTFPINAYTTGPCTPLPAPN

For assay [4], the target named is T4, Bait polypeptide of SEQ ID No 97, NS4B (100%), HCV strain H77 nt 6011-6177 (hepatitis C virus strain H77, UniProt O92972 1891-1944).
T4 construct: also called Bait NS4B (100%)
T4 sequence: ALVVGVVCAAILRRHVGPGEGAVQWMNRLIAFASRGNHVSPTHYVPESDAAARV

Assay [5] concerns the target T5, SID polypeptide of SEQ ID No 23, NS4B (100%), HCV strain H77 nt 5879-6072 (hepatitis C virus strain H77, UniProt Q913V3 1847-1909).
T5 construct: Intersection of yeast two-hybrid prey fragments; also called SID NS4B (100%)
T5 sequence: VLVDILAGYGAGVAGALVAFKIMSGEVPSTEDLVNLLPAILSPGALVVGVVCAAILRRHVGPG

Assay [6] has as its target T6, SID polypeptide of SEQ ID No 28, NS5A (100%), HCV strain H77 nt 6557-6721 (hepatitis C virus strain H77, UniProt P27958 2073-2125).
T6 construct: Intersection of yeast two-hybrid prey fragments; also called SID NS5A (100%)
T6 sequence: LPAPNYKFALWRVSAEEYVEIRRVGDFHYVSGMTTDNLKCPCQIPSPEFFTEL

The target of assay [7] is T7, Bait polypeptide of SEQ ID No 96, NS4B (82%)/NS5A(17%), HCV strain H77 nt 5897-6335 (hepatitis C virus strain H77, UniProt P26664 1853-1997).
T7 construct: also called Bait NS4B (82%)/NS5A(17%)
T7 sequence: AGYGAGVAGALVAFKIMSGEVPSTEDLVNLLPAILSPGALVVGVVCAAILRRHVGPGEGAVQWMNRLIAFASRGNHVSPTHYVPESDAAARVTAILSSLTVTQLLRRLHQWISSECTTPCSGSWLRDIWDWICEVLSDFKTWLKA

The target in assay [8] is T8, Bait polypeptide of SEQ ID No 100, NS4B (8%)/NS5A (91%), HCV strain H77 nt 6182-7034 (hepatitis C virus strain H77, UniProt P27958 1948-2230).
T8 construct: also called Bait NS4B (8%)/NS5A (91%)
T8 chain: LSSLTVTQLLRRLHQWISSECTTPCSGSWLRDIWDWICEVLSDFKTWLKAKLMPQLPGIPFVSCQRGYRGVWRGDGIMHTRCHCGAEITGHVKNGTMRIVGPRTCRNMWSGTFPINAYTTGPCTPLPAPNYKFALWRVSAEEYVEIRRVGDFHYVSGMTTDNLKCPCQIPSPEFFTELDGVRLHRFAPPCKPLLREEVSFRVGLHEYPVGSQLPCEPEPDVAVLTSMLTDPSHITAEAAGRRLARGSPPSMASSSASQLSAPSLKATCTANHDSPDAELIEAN

Assay [9] deals with T9, Bait polypeptide of SEQ ID No 101, NS4B (9%)/NS5A (90%), HCV strain H77 nt 6188-6939 (hepatitis C virus strain H77, UniProt P27958 1950-2198).
T9 construct: also called Bait NS4B (9%)/NS5A (90%)
T9 chain: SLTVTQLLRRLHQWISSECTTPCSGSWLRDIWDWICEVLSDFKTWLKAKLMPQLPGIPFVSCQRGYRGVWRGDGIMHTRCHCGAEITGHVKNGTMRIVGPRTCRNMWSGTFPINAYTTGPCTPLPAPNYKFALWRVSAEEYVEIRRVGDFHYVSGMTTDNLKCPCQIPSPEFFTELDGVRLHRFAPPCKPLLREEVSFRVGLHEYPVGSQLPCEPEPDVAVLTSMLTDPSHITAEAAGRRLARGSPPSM

Assay [10] addresses T10, Bait polypeptide of SEQ ID No 93, NS4B (86%)/NS5A (13%), HCV strain H77 nt 5717-6344 (hepatitis C virus strain H77, UniProt P26664 1793-2000).
T10 construct: also called Bait NS4B (86%)/NS5A (13%)
T10 chain: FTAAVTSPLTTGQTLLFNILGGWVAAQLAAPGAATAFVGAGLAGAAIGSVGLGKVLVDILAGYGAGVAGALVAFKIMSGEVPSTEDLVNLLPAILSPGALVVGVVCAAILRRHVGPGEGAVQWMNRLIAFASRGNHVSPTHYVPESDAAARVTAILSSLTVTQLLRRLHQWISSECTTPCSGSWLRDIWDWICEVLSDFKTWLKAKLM

The target of assay [11] is T11, Bait polypeptide of SEQ ID No 95, NS4B (55%)/NS5A (44%), HCV strain H77 nt 5882-6562 (hepatitis C virus strain H77, UniProt P26664 1848-2072).
T11 construct: also called Bait NS4B (55%)/NS5A (44%)
T11 chain: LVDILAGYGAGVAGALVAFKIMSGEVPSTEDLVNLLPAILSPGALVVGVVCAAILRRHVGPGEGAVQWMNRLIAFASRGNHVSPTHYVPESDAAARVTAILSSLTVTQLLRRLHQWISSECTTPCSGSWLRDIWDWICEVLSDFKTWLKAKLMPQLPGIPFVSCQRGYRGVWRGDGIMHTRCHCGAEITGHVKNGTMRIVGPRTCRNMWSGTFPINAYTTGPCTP

In assay [12] the target is T12, Bait polypeptide of SEQ ID No 87, NS3 (100%), HCV strain H77 nt 4238-4857 (hepatitis C virus strain H77, UniProt P27958 1300-1504).
T12 construct: also called Bait NS3 (100%)
T12 chain: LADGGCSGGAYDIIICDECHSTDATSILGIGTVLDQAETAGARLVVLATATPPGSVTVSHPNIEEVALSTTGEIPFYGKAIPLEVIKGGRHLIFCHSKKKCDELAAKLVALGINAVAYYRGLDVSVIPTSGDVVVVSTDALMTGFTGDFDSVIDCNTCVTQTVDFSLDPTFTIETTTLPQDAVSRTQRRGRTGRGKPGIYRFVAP

Assay [13] addresses T13, SID polypeptide of SEQ ID No 16, NS4B (100%), HCV strain H77 nt 5918-6154 (hepatitis C virus strain H77, UniProt P26664 1860-1936).
T13 construct: Intersection of yeast two-hybrid prey fragments; also called SID NS4B (100%)
T13 sequence: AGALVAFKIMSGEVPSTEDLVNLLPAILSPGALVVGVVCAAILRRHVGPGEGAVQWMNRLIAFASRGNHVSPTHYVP

Assay [14] has as its target T14, Bait polypeptide of SEQ ID No 89, NS3 (100%), HCV strain H77 nt 4691-5168 (hepatitis C virus strain H77, UniProt P26664 1451-1608).
T14 construct: also called Bait NS3 (100%)
T14 chain: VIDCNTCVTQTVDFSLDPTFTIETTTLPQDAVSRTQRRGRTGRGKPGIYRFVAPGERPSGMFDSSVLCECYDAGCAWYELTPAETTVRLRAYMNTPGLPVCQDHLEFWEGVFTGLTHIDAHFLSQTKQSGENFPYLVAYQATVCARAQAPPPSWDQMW

Assay [15] deals with T15, Bait polypeptide of SEQ ID No 90, NS3 (100%), HCV strain H77 nt 4838-5230 (hepatitis C virus strain H77, UniProt P26664 1500-1628).
T15 construct: also called Bait NS3 (100%)
T15 chain: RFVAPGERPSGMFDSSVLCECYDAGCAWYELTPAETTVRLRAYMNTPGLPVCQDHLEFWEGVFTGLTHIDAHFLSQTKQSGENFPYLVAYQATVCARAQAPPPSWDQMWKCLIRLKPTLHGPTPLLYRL

B1: SID polypeptide of SEQ ID No 1, Core (100%), HCV strain H77 nt 446-600 (other)
chain: LLPRRGPRLGVRATRKTSERSQPRGRRQPIPKARRPEGRTWAQPGYPWPL
notes: Intersection of yeast two-hybrid prey fragments; also called SID Core (100%)
For B1, in assay [1], the binding result is reported as “binds”.

B2: SID polypeptide of SEQ ID No 3, Core (100%), HCV strain H77 nt 380-616 (other)
chain: NTNRRPQDVKFPGGGQIVGGVYLLPRRGPRLGVRATRKTSERSQPRGRRQPIPKARRPEGRTWAQPGYPWPLYGNEG
notes: as for B1
In the case of B2, the binding result in assay [2] is “binds”.

B3: SID polypeptide of SEQ ID No 27, NS3 (100%), HCV strain H77 nt 4784-4928 (other)
chain: VSRTQRRGRTGRGKPGIYRFVAPGERPSGMFDSSVLCECYDAGCAWY
notes: Intersection of yeast two-hybrid prey fragments; also called SID NS3 (100%)
Regarding B3, the binding result in [3] is “binds”.

B4: SID polypeptide of SEQ ID No 22, E2 (100%), HCV strain H77 nt 1823-1955 (other)
chain: GIVPAKSVCGPVYCFTPSPVVVGTTDRSGAPTYSWGANDTDVF
notes: Intersection of yeast two-hybrid prey fragments; also called SID E2 (100%)
For the molecule B4, in assay [4], the binding result is “binds”.

B5: Bait polypeptide of SEQ ID No 98, NS4B (30%)/NS5A (69%), HCV strain H77 nt 6107-6605 (other)
chain: ASRGNHVSPTHYVPESDAAARVTAILSSLTVTQLLRRLHQWISSECTTPCSGSWLRDIWDWICEVLSDFKTWLKAKLMPQLPGIPFVSCQRGYRGVWRGDGIMHTRCHCGAEITGHVKNGTMRIVGPRTCRNMWSGTFPINAYTTGPCTPLPAPNYKFALWRVSA
notes: also called Bait NS4B (30%)/NS5A (69%)
As for B5, the binding result in assay [5] is recorded as “binds”.

B6: Bait polypeptide of SEQ ID No 103, NS5A (100%), HCV strain H77 nt 6440-6727 (other)
chain: EITGHVKNGTMRIVGPRTCRNMWSGTFPINAYTTGPCTPLPAPNYKFALWRVSAEEYVEIRRVGDFHYVSGMTTDNLKCPCQIPSPEFFTELDG
notes: also called Bait NS5A (100%)
Consider B6, for which the binding result in assay [6] was “binds”.

B7: SID polypeptide of SEQ ID No 21, NS4B (100%), HCV strain H77 nt 5819-6080 (other)
chain: TAFVGAGLAGAAIGSVGLGKVLVDILAGYGAGVAGALVAFKIMSGEVPSTEDLVNLLPAILSPGALVVGVVCAAILRRHVGPGEGA
notes: Intersection of yeast two-hybrid prey fragments; also called SID NS4B (100%)
In the case of B7, in assay [7], the binding result is recorded as “binds”.

B8: SID polypeptide of SEQ ID No 2, NS3 (100%), HCV strain H77 nt 4814-4922 (other)
chain: GRGKPGIYRFVAPGERPSGMFDSSVLCECYDAGCA
notes: as for B3
Consider B8, for which the binding result in assay [2] is “binds”.

B9: SID polypeptide of SEQ ID No 25, E1 (100%), HCV strain H77 nt 1226-1458 (other)
chain: RRHWTTQDCNCSIYPGHITGHRMAWDMMMNWSPTAALVVAQLLRIPQAIMDMIAGAHWGVLAGIAYFSMVGNWAKV
notes: Intersection of yeast two-hybrid prey fragments; also called SID E1 (100%)
Regarding B9, in assay [8], the binding result is on record as “binds”.

B10: SID polypeptide of SEQ ID No 26, NS4B (70%)/NS5A (28%), HCV strain H77 nt 6176-6291 (other)
chain: AILSSLTVTQLLRRLHQWISSECTTPCSGSWLRDIWD
notes: Intersection of yeast two-hybrid prey fragments; also called SID NS4B (70%)/NS5A (28%)
Consider B10, for which the binding result in [9] is listed as “binds”.

B11: SID polypeptide of SEQ ID No 18, NS4B (53%)/NS5A (46%), HCV strain H77 nt 6197-6310 (other)
chain: VTQLLRRLHQWISSECTTPCSGSWLRDIWDWICEVL
notes: Intersection of yeast two-hybrid prey fragments; also called SID NS4B (53%)/NS5A (46%)
With B11, in assay [10], the binding result is recorded as “binds”.

B12: SID polypeptide of SEQ ID No 20, NS5B (100%), HCV strain H77 nt 9083-9222 (other)
chain: not shown
notes: Intersection of yeast two-hybrid prey fragments; also called SID NS5B (100%)
On to B12, for which the binding result in assay [11] is recorded as “binds”.

B13: SID polypeptide of SEQ ID No 12, NS5B (100%), HCV strain H77 nt 7979-8109 (other)
chain: not shown
notes: as for B12
For B13, the binding result in assay [12] was “binds”.

B14: Bait polypeptide of SEQ ID No 91, NS3 (1%)/NS4A (98%), HCV strain H77 nt 5310-5467 (other)
chain: TSTWVLVGGVLAALAAYCLSTGCVVIVGRIVLSGKPAIIPDREVLYQEFDE
notes: also called Bait NS3 (1%)/NS4 A (98%)
For B14, the binding result in assay [13] was “binds”.

B15: SID polypeptide of SEQ ID No 14, E2 (100%), HCV strain H77 nt 1784-1888 (other)
chain: ERPYCWHYPPRPCGIVPAKSVCGPVYCFTPSPV
notes: as for B4
On to B15, for which the binding result in assay [14] was “binds”.

B16: SID polypeptide of SEQ ID No 15, E2 (100%), HCV strain H77 nt 1871-1968 (other)
chain: PSPVVVGTTDRSGAPTYSWGANDTDVFVLNN
notes: as for B4
For the molecule B16, the binding result in [15] is on record as “binds”.
